Consider three compounds from PMC3781208 (Chemistry & biology, 2013).

In one experiment the target is BAXΔC (Homo sapiens, UniProt Q07812). As to the kind of experiment: Fluorescence polarization binding assay, BAXΔC. To be noted: ratio of FP KDs. In general terms: Polarisation of emitted light reports the rotation of a fluorescent probe.
The target of the next experiment is FITC-PUMA SAHBF1 (UniProt Q9BXH1). Put plainly: fluorescence polarisation.
Experiment [1] addresses FITC-PUMA BH3 (aa 131–153) (UniProt Q9BXH1). As to the kind of experiment: fluorescence polarisation.

Positions of bridges follow the written chain, without caps; N, C: chain ends. Non-standard residues stand in square brackets, D forms with d. Residues, ends and D or L forms follow the SMILES beside them. *: point of attachment. FITC = O=C1OC2(c3ccc(O)cc3Oc3cc(O)ccc32)c2ccc(NC(=S)*)cc21; S5 = C=CCCC[C@](C)(N)C(=O)O; Nle = CCCC[C@H](N)C(=O)O; βAla = NCCC(=O)O

Sequence of FITC-PUMA SAHBF1 (Q9BXH1 131-153): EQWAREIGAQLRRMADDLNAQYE
Sequence of BAXΔC (Q07812 whole entry, stated change not applied): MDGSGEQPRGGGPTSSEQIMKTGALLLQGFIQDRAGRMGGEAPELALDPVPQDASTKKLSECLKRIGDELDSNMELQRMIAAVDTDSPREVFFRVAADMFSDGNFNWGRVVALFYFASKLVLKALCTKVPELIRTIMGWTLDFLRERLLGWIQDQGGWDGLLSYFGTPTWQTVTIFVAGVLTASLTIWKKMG

On to `CCCC[C@@H]1NC(=O)[C@@](C)(NC(=O)[C@H](CCCNC(=N)N)NC(=O)[C@H](CC(C)C)NC(=O)[C@H](CCC(N)=O)NC(=O)[C@H](C)NC(=O)CNC(=O)[C@@H](NC(=O)[C@H](CCC(=O)O)NC(=O)[C@H](CCCNC(=N)N)NC(=O)[C@H](C)NC(=O)[C@H](Cc2c[nH]c3ccccc23)NC(=O)[C@H](CCC(N)=O)NC(=O)[C@H](CCC(=O)O)NC(=O)CCNC(=S)Nc2ccc3c(c2)C(=O)OC32c3ccc(O)cc3Oc3cc(O)ccc32)[C@@H](C)CC)CCCC=CCCC[C@@](C)(C(=O)N[C@@H](CC(C)C)C(=O)N[C@@H](CC(N)=O)C(=O)N[C@@H](C)C(=O)N[C@@H](CCC(N)=O)C(=O)N[C@@H](Cc2ccc(O)cc2)C(=O)N[C@@H](CCC(=O)O)C(N)=O)NC(=O)[C@H](CC(=O)O)NC(=O)[C@H](C)NC1=O` [FITC-PUMA SAHBA1] ({FITC-βAla}-EQWAREIGAQLR[S5][Nle]AD[S5]LNAQYE-NH2; staple 13-17; N-terminus and C-terminus assumed), for which, at BAXΔC, the “preference for BAXΔC over BAX A112C/V177C” value worked out at 3 fold. For “BAX A112C/V177C (from UniProt Q07812 1-192) (natural protein)”, the Kd with FITC-PUMA SAHBF1 amounted to 90 nM. As to BAXΔC (domain or fragment), the values for the dissociation constant Kd (in experiment [1]; in the experiment with FITC-PUMA SAHBF1) were 306 nM and 70 nM, respectively.

For orientation: Kd means the equilibrium constant for the complex coming apart. A high value points to weaker binding.
